Patent US20180346588A1

Biological target: human mesothelin (MSLN) on the cell surface (human) (UniProt Q13421)
Test: FACS on MiaPaCa-MSLN #2 cells, upper histogram and table

Sequence of human mesothelin (MSLN) on the cell surface (human) (Q13421 other isoform, or with tags, fused parts or gaps limits assumed): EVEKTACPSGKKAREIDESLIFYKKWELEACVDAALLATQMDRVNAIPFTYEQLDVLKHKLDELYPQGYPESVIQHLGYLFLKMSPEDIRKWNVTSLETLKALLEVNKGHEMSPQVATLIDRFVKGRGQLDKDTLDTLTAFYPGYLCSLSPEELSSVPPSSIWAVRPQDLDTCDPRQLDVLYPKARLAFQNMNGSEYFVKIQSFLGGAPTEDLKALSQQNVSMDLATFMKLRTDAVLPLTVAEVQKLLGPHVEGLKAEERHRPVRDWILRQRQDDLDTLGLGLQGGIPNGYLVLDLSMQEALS

B1: BAY94-9343 (antibody, INN chains, looked up, V domains shown)
VH: QVELVQSGAEVKKPGESLKISCKGSGYSFTSYWIGWVRQAPGKGLEWMGIIDPGDSRTRYSPSFQGQVTISADKSISTAYLQWSSLKASDTAMYYCARGQLYGGTYMDGWGQGTLVTVSS
VL: DIALTQPASVSGSPGQSITISCTGTSSDIGGYNSVSWYQQHPGKAPKLMIYGVNNRPSGVSNRFSGSKSGNTASLTISGLQAEDEADYYCSSYDIESATPVFGGGTKLTVL
modifications: ravtansine (DM4) payload
A Mean, FL2-H of 2710 was found for B1 in this work.
